According to US20080261863A1 (Bayer, published 2008):
Ends that are not written are not given here.

These binders were tested against T1, VPAC1 receptor (assay: cell-based or functional assay).
T1 sequence (P32241 whole entry, species assumed, looked up): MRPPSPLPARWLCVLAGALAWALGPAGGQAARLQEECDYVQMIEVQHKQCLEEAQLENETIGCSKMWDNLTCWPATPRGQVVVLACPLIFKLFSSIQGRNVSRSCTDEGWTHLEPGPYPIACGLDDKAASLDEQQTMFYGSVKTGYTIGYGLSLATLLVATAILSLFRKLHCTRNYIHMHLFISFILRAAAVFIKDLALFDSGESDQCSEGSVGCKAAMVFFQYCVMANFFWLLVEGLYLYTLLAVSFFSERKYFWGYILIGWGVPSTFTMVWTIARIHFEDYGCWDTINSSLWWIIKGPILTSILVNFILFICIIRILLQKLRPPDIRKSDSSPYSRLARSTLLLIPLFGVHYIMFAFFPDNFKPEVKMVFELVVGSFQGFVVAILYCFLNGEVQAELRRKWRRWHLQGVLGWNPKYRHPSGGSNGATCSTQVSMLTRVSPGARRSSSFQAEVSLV

| Binder | EC50 (nM), cAMP assay, VPAC1 agonist activity |
| --- | --- |
| HSDAVFTDQYTRLRKQVAAKKYLQSIKQKRYC (branched 43 kD PEG attached to the C-terminal cysteine via maleimide (thioether) linkage) [P412 (P12+43 kD PEG)] | > 1000 nM |
| HSDAVFTDQYTRLRKQVAAKKYLQSIKQKRYC (linear 22 kD PEG attached to the C-terminal cysteine via maleimide (thioether) linkage) [P212 (P12+22 kD PEG)] | > 1000 nM |
| HSDAVFTDQYTRLRKQVAAKKYLQSIKQKRYC (ends and bridges not checked) [P12] | > 1000 nM |
| HSDAVFTDQYTRLRKQVAAKKYLQSIKQKRY (ends and bridges not checked) [P5] | 232 nM |
